# Experiment: soluble on expression in E. coli; label from the status in PepcDB or PDB records
row,Sequence,soluble on expression in E. coli
1,MGSDKIHHHHHHMSEQYKQPNTPEPYWRQSTPLPDFKPLQNDLLVDVVIVGGGITGITTAYLLQKRGKKVVILEADRLFNGTTGHTTAKITAQHGLIYDEFIQHFGEDKAKQYYDAQMEAKTFIKNTVQDLSIDCDFQEHDAYIYTNANRYLAKLEREMRAYEKLQINGSLIDSMPLQVPIKKAIVMKGQAQFHPIAYLMKLVQDFIDRGGLIFEHTVATDVDKGEHRTVLTRDGHKVTCDYVVESSHFPFFDRGFYFSRMYADRSYVLGLKVKEPYPGGMYLSAEDPPRSIRHASYQGEDLWLISGETHKTGQGMDTDYHYEALESFSREMFNVTDISYRWSAQDLVTLDRMPYIGPATSNDPHILVATGFRKWGMTNGTIAAHVITDLIIGQVNAYQKLFAPQRFVADPSLRKFFSYNVDVAKHLIDGKTEKGSRTPESLQKDEGDVVNVNGKRAGGYRDTDGALHLVDTTCTHMGCEVSWNHGDRTWDCPCHGSRFSYDGEVVEGPAKKPLKKIDHT,not soluble
2,MGSDKIHHHHHHMQSYSLAELNKETTIGGIGKTVERDVPVIDLADFDNRKAEIADQLWEASVGIGFFQVYNHGIPQQDIDAAFETAWSFFELPADIKAQYPMPKGTNAGWEFKAQVRPSTGTPDNKESYQITRPMMGGLWPSEEELPDFKEKMLRFERQNWELGMRILSCFALKMGFAEDFFTKAHDPASSEYQSTQRLIHYMSMEHAKPEDFEFWRAGAHSDFDCLTILHQKEGEGGLQVCPGKDAASGEWTDVPPKNGYITCNIGDMLMRWSDDQLQSTLHRVRMPRPGEYLGRRLSLPFFCQANRDAVMQGPLGKYEAITAGDYLTQRINANFARK,not soluble
3,MRPLTRLVPLALLLLAGCAGPLPQPDPQMAWVELRSAPANTLLAERLDGERLSDGRYFQVTPGRHVLEVRFQYELYGGSGGGGGGFGEPVQINCYQQVVYDGFEAGRRYRLEVRPQLRRALALLSDERGEVVARSNFQTSRCPPY,not soluble
4,MGSDKIHHHHHHMTVAIDRTKGDQSTPGNIIRGEGYALIRNSEATPDPDKVIHIPCADSFSVIVQLRDFNSHRLWNGNKLVFDGGHPRKSISIAYLGDEIKCQHRTTYDNVRFMLPRASIKEFLYEEGQRASAEPERIIGVDDPVVYHLALALLPSFARAGERNELFIEQVMLALLTHVQDRFASTQVPVCTGKGLAPWQLRRAKELIAGHLAEGVSVARLAEECGLSRSYFTKAFKCSTGVSPHEWLMRMRVDRAKELMLGSDEPLSQIGVACGFSDQPHFSRIFLRLAGASPSTWRRVKRQRTDAAL,not soluble
5,MTRSVSHPPYADPFAHPPETSPQELTAQLTPGARFQDVRFENYRPNPEFPSQAQARDQLAEFVRQAGQKASGGGFWPFKRRAPEGRGFYLDGGFGVGKTHLLASAYHAAKGQSGGSGGDVAFMSFQDLMYLIGALGMPQAIETFRNYKLLLIDEFELDDPGNTHMANTFLGGLMPSGVSVVATSNTEPGALGAGRFNAEDFQRQIQGIADRFGPHRIDGPDYRQRGTEPAQPLSEAEFAAWLARQNPQTTALMTHAELNRALLSVHPSRFARVLEQVSGVAVTNLEPMPEQGEALRFVHFVDKVYDLGLSAAFTGVPLNALFDDIYRNGGYAKKYSRALSRLSEMLREARGLEHHHHHH,not soluble
6,AEAEFNNYCKIKCLKGGVHTACKYGSLKPNCGNKVVVSYGLTKQEKQDILKEHNDFRQKIARGLETRGNPGPQPPAKNMKNLVWNDELAYVAQVWANQCQYGHDTCRDVAKYQVGQNVALTGSTAAKYDDPVKLVKMWEDEVKDYNPKKKFSGNDFLKTGHYTQMVWANTKEVGCGSIKYIQEKWHKHYLVCNYGPSGNFKNEELYQTK,soluble
7,MRGSHHHHHHGSIEGRMEKINYLLPEESAEMTLNQVKSLRQIEGRLRKLFSLKNYQEVMPPSFEYTQLYTALESNGKTFNQEKMFQFIKHEGQSITLRYDFTLPLVRLYSQIKDSTSARYSYFGKIFRKEKRHKGRSTENYQIGIELFGESADKSELEILSLALQVIEQLGLNKTVFEIGSAKFFQRLCQLADGSTELLTELLLKKDLSGLNAFIEKNNFSKELRGLLKEIFITNELSRLENLVTNTKDDVLISSFDQLKEFSEKLSMIKPIIIDLGMVPKMDYYTDLMFKAYSSAANQPILSGGRYDQLLSNFQEEAFAIGFCCHMDTILKALERQELEEDND,soluble
8,MGSDKIHHHHHHMTKEASRPALDLARQAYEAFKARGLNLNMQRGQPADADFDLSNGLLTVLGAEDVRMDGLDLRNYPGGVAGLPSARALFAGYLDVKAENVLVWNNSSLELQGLVLTFALLHGVRGSTGPWLSQTPKMIVTVPGYDRHFLLLQTLGFELLTVDMQSDGPDVDAVERLAGTDPSVKGILFVPTYSNPGGETISLEKARRLAGLQAAAPDFTIFADDAYRVHHLVEEDRAEPVNFVVLARDAGYPDRAFVFASTSKITFAGAGLGFVASSEDNIRWLSKYLGAQSIGPNKVEQARHVKFLTEYPGGLEGLMRDHAAIIAPKFRAVDEVLRAELGEGGEYATWTLPKGGYFISLDTAEPVADRVVKLAEAAGVSLTPAGATYPAGQDPHNRNLRLAPTRPPVEEVRTAMQVVAACIRLATEEYRAGH,not soluble
9,GMKSSQPFIYEAHAARVVFGAGSSSQVAAEVERLGAKRALVLCTPNQQAEAERIADLLGPLSAGVYAGAVMHVPIESARDATARAREAGADCAVAVGGGSTTGLGKAIALETGMPIVAIPTTYAGSEVTPVYGLTEAGTKRTGRDPRVLPRTVIYDPALTVGLPRGLSVTSALNAIAHAAEGLYARDANPVMSLMAEEGIRALAAGIPAVFNDPADLDARSQCLYGAWLCGTVLGGVGMALHHKLCHTLGGSFNLPHAETHTIVLPHALAYNAAAVPEAMARIRRATGAGEQSAAATLFDLAQRHGAPVALRDIGMREEDLDRAADIALASPYWNPRPIEREPIRALLQAAYEGVRPD,soluble
10,MEAQAQGLLETEPLQGTDEDAVASADFSSMLSEEEKEELKAELVQLEDEITTLRQVLSAKERHLVEIKQKLGMNLMNELKQNFSKSWHDMQTTTAYKKTHETLSHAGQKATAAFSNVGTAISKKFGDMSYSIRHSISMPAMRRK,soluble
11,MGSDKIHHHHHHMTKHASARKFPPRARFLPKCEPSLYHERRSVSARASGPTTVIDPKTVTDVTNDTLSHYALPAYPAEQFCVDIGANAGDPIGILDDLVMDDIYELTSDARLRRLAFGVSTEGTITLHSESEMGQDGARLHLDCAVTLMPDLGSAIEALIAVEVDNEGLIARLYLIPQAPLAQGTGYRLVRASREPVWTRLAQLSCVAFSRGTHITMGTGEQRPIEMLRAGDRVLTRNSGARRITWVGHTTVRAVGEMAPILIRQGALNNARDLLVSPDHRLMIYQRSDALGAGRNELMIRARDLVNGDSVVVQDGGFVDYYQILFDRHHIIYAEGIAAESMLVDPVTRPALPEEVQQRLTQPRRHGTRGDHGLEIRRPMLSHPDTVDLLKRASLR,not soluble
12,MGSDKIHHHHHHMKIAVLSGKGGTGKTLVAVNLAAAAQRSTYIDCDVEEPNGHLFFKPEILQEEEITVKIPRVEDTLCQGCRRCVDFCQFNALAYIKEKLLVFEDVCHSCGGCILLCPEKALTEQEKGIGKVQKGLSDQVRVYTGVLNIGEVSGVPIIKKLLNENKSDKNEPESDQLTFIDCPPGSACSVMESIKDADYCLLVAEPTLFGVHNLNMVHELVKIFNKPCGVVLNKSLEGENPAETFCLEKNIKILSRLPFDHELGRLNSNAEIAVRKSEPYKALFSALLETVTKEVQHETAAYS,not soluble
13,MGSDKIHHHHHHMKTNNSPISLLQTQNNTYNVLNNIKVHVEVRDNPYNLELDNLFQMAARINKKRSFLFVSTILGKHLPIKPAVSLASGFALAARYMEILHNTFHPFQKEILNLISLEVDEIPEEIFHYQYPLPEEVLFIGFAETATALGHSMFQCFQNAKYVHTTRESIPNLESVITFEEEHSHATSHRCYVDKSFFQNNNPIILVDDEMTTGKTALNIIRSIQQQFPREEYTIASLLDWRSNTNRRQFKQLEEELQIKIHVISLLEGRIHTTGQPLNITKTDTHIEETKPYFKKHTIICPALSYTSNYIKYTGRFGISSYEQKHIHSFAQEAGKMLQRKRIGKRTLCLGTGEFMYIPMKIAAEMGENILYQSTTRSPIHPVSNDVNYAIHNHFSYPNPEDSTITNYFYNISPHEYDEVFVFMERDVGEEALSPLLQHLQTVIPCIHIVSFSNSIEKEG,not soluble
14,MSVTYDDSVGVEVSSDSFWEVGNYKRTVKRIDDGHRLCSDLMNCLHERARIEKAYAQQLTEWARRWRQLVEKGPQYGTVEKAWMAFMSEAERVSELHLEVKASLMNDDFEKIKNWQKEAFHKQMMGGFKETKEAEDGFRKAQKPWAKKLKEVEAAKKAHHAACKEEKLAISREANSKADPSLNPEQLKKLQDKIEKCKQDVLKTKEKYEKSLKELDQGTPQYMENMEQVFEQCQQFEEKRLRFFREVLLEVQKHLDLSNVAGYKAIYHDLEQSIRAADAVEDLRWFRANHGPGMAMNWPQFEEWSADLNRTLSRREKKKATDGVTLTGINQTGDQSLPSKPSSTLNVPSNPAQSAQSQSSYNPFEDEDDTGSTVSEKDDTKAKNVSSYEKTQSYPTDWSDDESNNPFSSTDANGDSNPFDDDATSGTEVRVRALYDYEGQEHDELSFKAGDELTKMEDEDEQGWCKGRLDNGQVGLYPANYVEAIQ,soluble
15,MKRQLILEDGSFFVGEAFGSLKETTGEVVFNTGMTGYQEILTDPSYCGQIVTMTYPLIGNYGINRDDFEAIRPHVHGFIVKEACVKPSNWRGELTLDEYLKEKDIPGLAGIDTRKLTRLIRQYGTLKGMICGLDVDPVEAAAKLRAMEWPRDQVRRVSTKSAYPSPGRGERIVLIDFGMKHGILRELNKRNCDVIVLPYNATAEEVLGWHPDGVMLSNGPGDPKDVPEAIEMIRGILGKVPLFGICLGHQLFALACGANTEKMKFGHRGSNHPVKDLRTGKVAITSQNHGYTVTHESLSGTRLEVTHIALNDGTVEGLRHLDVPAFTVQYHPEASPGPEDANPLFDEFLALIREFNKKGEVIHA,soluble
16,MNNSRLFRLSRIVIALTAASGMMVNTANAKEEAKAATQYTQQVNQNYAKSLPFSDRQDFDDAQRGFIAPLLDEGILRDANGKVYYRADDYKFDINAAAPETVNPSLWRQSQINGISGLFKVTDKMYQVRGQDISNITFVEGEKGIIVIDPLVTPPAAKAALDLYFQHRPQKPIVAVIYTHSHTDHYGGVKGIISEADVKSGKVQVIAPAGFMDEAISENVLAGNIMSRRALYSYGLLLPHNAQGNVGNGLGVTLATGDPSIIAPTKTIVRTGEKMIIDGLEFDFLMTPGSEAPAEMHFYIPALKALCTAENATHTLHNFYTLRGAKTRDTSKWTEYLNETLDMWGNDAEVLFMPHTWPVWGNKHINDYIGKYRDTIKYIHDQTLHLANQGYTMNEIGDMIKLPPALANNWASRGYYGSVSHNARAVYNFYLGYYDGNPANLHPYGQVEMGKRYVQALGGSARVINLAQEANKQGDYRWSAELLKQVIAANPGDQVAKNLQANNFEQLGYQAESATWRGFYLTGAKELREGVHKFSHGTTGSPDTIRGMSVEMLFDFMAVRLDSAKAAGKNISLNFNMSNGDNLNLTLNDSVLNYRKTLQPQADASFYISREDLHAVLTGQAKMADLVKAKKAKIIGNGAKLEEIIACLDNFDLWVNIVTPN,soluble
17,RYLLRATTDDLYLVHDRQVAPFDGDLNDYYKWLTEQQKAERKEAQALQPVKDTANSAAAKKEQKRREAEFRKLTAPIRKTLTQLENKMDKLGVALAEAEEQLADNSLYEAENKAKLNEVLALQASSKSELEEVEMEWMSAQEELEQMELEFNQ,not soluble
18,MLSFAPYRFSQVLEHQCTRNGSVLIRHTEEFTSKTCSRCGHIHYSLGGQKIFKCSNCGNHLPRDWNGALGNFLKALWDTTLEHHHHHH,not soluble
